The numbers were not newly measured in article PMC3159772, which cites them from elsewhere.

In one data set the target is NTS1 (Homo sapiens) (UniProt P30989).
The next data set concerns the target NTS2 (Homo sapiens) (UniProt O95665).
Sequence of UniProt O95665 (O95665 whole entry): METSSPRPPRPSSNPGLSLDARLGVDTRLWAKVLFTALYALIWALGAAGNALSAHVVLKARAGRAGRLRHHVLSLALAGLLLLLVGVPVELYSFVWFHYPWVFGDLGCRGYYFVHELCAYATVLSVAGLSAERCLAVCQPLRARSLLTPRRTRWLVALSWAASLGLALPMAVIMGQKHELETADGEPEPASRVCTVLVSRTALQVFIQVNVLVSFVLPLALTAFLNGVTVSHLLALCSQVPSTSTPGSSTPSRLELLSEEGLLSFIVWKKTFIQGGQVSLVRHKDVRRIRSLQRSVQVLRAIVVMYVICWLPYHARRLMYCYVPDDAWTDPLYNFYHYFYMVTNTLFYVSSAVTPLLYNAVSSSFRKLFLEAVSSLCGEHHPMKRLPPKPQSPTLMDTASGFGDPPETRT

Sequence of UniProt P30989 (P30989 whole entry): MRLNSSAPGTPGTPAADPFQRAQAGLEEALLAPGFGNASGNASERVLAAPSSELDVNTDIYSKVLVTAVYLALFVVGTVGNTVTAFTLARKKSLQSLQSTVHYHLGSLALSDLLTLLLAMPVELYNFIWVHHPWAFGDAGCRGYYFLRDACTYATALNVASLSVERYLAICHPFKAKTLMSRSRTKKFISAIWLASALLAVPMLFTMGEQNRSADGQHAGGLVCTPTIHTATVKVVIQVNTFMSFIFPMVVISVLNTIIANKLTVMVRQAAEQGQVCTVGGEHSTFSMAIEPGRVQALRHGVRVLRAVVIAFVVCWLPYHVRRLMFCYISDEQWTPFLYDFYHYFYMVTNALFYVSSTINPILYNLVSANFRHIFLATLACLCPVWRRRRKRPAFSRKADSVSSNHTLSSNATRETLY

One may read the Kd as the constant that tells how readily two partners part at equilibrium. For NT69L (from UniProt P30990), the figures for the Kd in the data set with NTS1 (Homo sapiens) and in the data set with NTS2 (Homo sapiens) were 3.1 nM and 2.1 nM, respectively.
